± gives the standard error.
Assay: background-corrected fluorescence of 3'-dye-labeled ssDNA relative to brightest sequence (3'-GCGCG) (fraction); higher = brighter dye fluorescence (less quenching)
Outline: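 By light-directed phosphoramidite synthesis, single-stranded DNA ending in a 3' Cy3 or Cy5 dye beside each of 1024 permuted pentamers was built on glass slides. Scanning at 532 or 635 nm took place before and after overnight ethylenediamine/ethanol deprotection. Data are means of 10 features per array over at least 3 syntheses. Fluorescence is corrected for unlabeled-oligo background and scaled to the brightest sequence.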

Sequence | background-corrected fluorescence (dye: Cy3 (3' terminal)) | background-corrected fluorescence (dye: Cy5 (3' terminal))
TTTTTTCATGCGCAGCATGCTTTTTTTTTTTTTTTGATTA [ATTAG] | 0.547 ± 0.022 | 0.424 ± 0.034
TTTTTTCATGCGCATCAGCATTTTTTTTTTTTTTTGATGT [TGTAG] | 0.653 ± 0.025 | 0.478 ± 0.04
TTTTTTCATGCGCATCATCATTTTTTTTTTTTTTTGATGG [GGTAG] | 0.62 ± 0.012 | 0.482 ± 0.024
TTTTTTCATGCGCATCATGATTTTTTTTTTTTTTTGATGC [CGTAG] | 0.522 ± 0.031 | 0.425 ± 0.03
TTTTTTCATGCGCATCATGCTTTTTTTTTTTTTTTGATGA [AGTAG] | 0.653 ± 0.035 | 0.518 ± 0.062
TTTTTTCATGCGCATGAGCATTTTTTTTTTTTTTTGATCT [TCTAG] | 0.456 ± 0.055 | 0.354 ± 0.017
TTTTTTCATGCGCATGATCATTTTTTTTTTTTTTTGATCG [GCTAG] | 0.545 ± 0.016 | 0.41 ± 0.025
TTTTTTCATGCGCATGATGATTTTTTTTTTTTTTTGATCC [CCTAG] | 0.398 ± 0.022 | 0.294 ± 0.027
TTTTTTCATGCGCATGATGCTTTTTTTTTTTTTTTGATCA [ACTAG] | 0.535 ± 0.034 | 0.43 ± 0.022
TTTTTTCATGCGCATGCGCATTTTTTTTTTTTTTTGATAT [TATAG] | 0.532 ± 0.024 | 0.382 ± 0.018
TTTTTTCATGCGCATGCTCATTTTTTTTTTTTTTTGATAG | 0.526 ± 0.03 | 0.425 ± 0.049
TTTTTTCATGCGCATGCTGATTTTTTTTTTTTTTTGATAC [CATAG] | 0.448 ± 0.026 | 0.334 ± 0.024
TTTTTTCATGCGCATGCTGCTTTTTTTTTTTTTTTGATAA [AATAG] | 0.587 ± 0.042 | 0.452 ± 0.031
TTTTTTCATGCTCAGCAGCATTTTTTTTTTTTTTTGAGTT | 0.621 ± 0.031 | 0.422 ± 0.024
TTTTTTCATGCTCAGCATCATTTTTTTTTTTTTTTGAGTG [GTGAG] | 0.578 ± 0.031 | 0.445 ± 0.054
TTTTTTCATGCTCAGCATGATTTTTTTTTTTTTTTGAGTC [CTGAG] | 0.469 ± 0.015 | 0.359 ± 0.017
TTTTTTCATGCTCAGCATGCTTTTTTTTTTTTTTTGAGTA [ATGAG] | 0.603 ± 0.026 | 0.486 ± 0.035
TTTTTTCATGCTCATCAGCATTTTTTTTTTTTTTTGAGGT [TGGAG] | 0.708 ± 0.038 | 0.56 ± 0.05
TTTTTTCATGCTCATCATCATTTTTTTTTTTTTTTGAGGG [GGGAG] | 0.759 ± 0.02 | 0.553 ± 0.041
TTTTTTCATGCTCATCATGATTTTTTTTTTTTTTTGAGGC [CGGAG] | 0.585 ± 0.015 | 0.465 ± 0.033
TTTTTTCATGCTCATCATGCTTTTTTTTTTTTTTTGAGGA [AGGAG] | 0.747 ± 0.023 | 0.669 ± 0.059
TTTTTTCATGCTCATGAGCATTTTTTTTTTTTTTTGAGCT [TCGAG] | 0.559 ± 0.024 | 0.41 ± 0.022
TTTTTTCATGCTCATGATCATTTTTTTTTTTTTTTGAGCG [GCGAG] | 0.654 ± 0.03 | 0.526 ± 0.059

Sequence | background-corrected fluorescence (dye: Cy3 (3' terminal)) | background-corrected fluorescence (dye: Cy5 (3' terminal))
TTTTTTCATGCTCATGATGATTTTTTTTTTTTTTTGAGCC [CCGAG] | 0.425 ± 0.012 | 0.312 ± 0.029
TTTTTTCATGCTCATGATGCTTTTTTTTTTTTTTTGAGCA [ACGAG] | 0.585 ± 0.025 | 0.43 ± 0.035
TTTTTTCATGCTCATGCGCATTTTTTTTTTTTTTTGAGAT [TAGAG] | 0.578 ± 0.051 | 0.439 ± 0.023
TTTTTTCATGCTCATGCTCATTTTTTTTTTTTTTTGAGAG | 0.6283 ± 0.0056 | 0.492 ± 0.024
TTTTTTCATGCTCATGCTGATTTTTTTTTTTTTTTGAGAC [CAGAG] | 0.476 ± 0.015 | 0.357 ± 0.018
TTTTTTCATGCTCATGCTGCTTTTTTTTTTTTTTTGAGAA [AAGAG] | 0.645 ± 0.032 | 0.513 ± 0.026
TTTTTTCATGCTGAGCAGCATTTTTTTTTTTTTTTGACTT [TTCAG] | 0.501 ± 0.016 | 0.401 ± 0.021
TTTTTTCATGCTGAGCATCATTTTTTTTTTTTTTTGACTG [GTCAG] | 0.511 ± 0.03 | 0.39 ± 0.032
TTTTTTCATGCTGAGCATGATTTTTTTTTTTTTTTGACTC [CTCAG] | 0.419 ± 0.021 | 0.317 ± 0.028
TTTTTTCATGCTGAGCATGCTTTTTTTTTTTTTTTGACTA [ATCAG] | 0.491 ± 0.021 | 0.416 ± 0.029
TTTTTTCATGCTGATCAGCATTTTTTTTTTTTTTTGACGT [TGCAG] | 0.601 ± 0.016 | 0.474 ± 0.028
TTTTTTCATGCTGATCATCATTTTTTTTTTTTTTTGACGG [GGCAG] | 0.65 ± 0.026 | 0.585 ± 0.076
TTTTTTCATGCTGATCATGATTTTTTTTTTTTTTTGACGC [CGCAG] | 0.577 ± 0.062 | 0.462 ± 0.065
TTTTTTCATGCTGATCATGCTTTTTTTTTTTTTTTGACGA [AGCAG] | 0.642 ± 0.026 | 0.52 ± 0.025
TTTTTTCATGCTGATGAGCATTTTTTTTTTTTTTTGACCT [TCCAG] | 0.453 ± 0.026 | 0.34 ± 0.026
TTTTTTCATGCTGATGATCATTTTTTTTTTTTTTTGACCG [GCCAG] | 0.524 ± 0.032 | 0.428 ± 0.043
TTTTTTCATGCTGATGATGATTTTTTTTTTTTTTTGACCC [CCCAG] | 0.387 ± 0.0053 | 0.282 ± 0.022
TTTTTTCATGCTGATGATGCTTTTTTTTTTTTTTTGACCA [ACCAG] | 0.499 ± 0.022 | 0.394 ± 0.024
TTTTTTCATGCTGATGCGCATTTTTTTTTTTTTTTGACAT [TACAG] | 0.536 ± 0.019 | 0.388 ± 0.025
TTTTTTCATGCTGATGCTCATTTTTTTTTTTTTTTGACAG | 0.547 ± 0.023 | 0.423 ± 0.036
TTTTTTCATGCTGATGCTGATTTTTTTTTTTTTTTGACAC [CACAG] | 0.42 ± 0.0058 | 0.321 ± 0.044
TTTTTTCATGCTGATGCTGCTTTTTTTTTTTTTTTGACAA [AACAG] | 0.537 ± 0.032 | 0.415 ± 0.022
TTTTTTCATGCTGCGCAGCATTTTTTTTTTTTTTTGAATT [TTAAG] | 0.5465 ± 0.0052 | 0.382 ± 0.03

Sequence | background-corrected fluorescence (dye: Cy3 (3' terminal)) | background-corrected fluorescence (dye: Cy5 (3' terminal))
TTTTTTCATGCTGCGCATCATTTTTTTTTTTTTTTGAATG [GTAAG] | 0.489 ± 0.022 | 0.367 ± 0.029
TTTTTTCATGCTGCGCATGATTTTTTTTTTTTTTTGAATC [CTAAG] | 0.433 ± 0.031 | 0.311 ± 0.025
TTTTTTCATGCTGCGCATGCTTTTTTTTTTTTTTTGAATA [ATAAG] | 0.553 ± 0.025 | 0.42 ± 0.053
TTTTTTCATGCTGCTCAGCATTTTTTTTTTTTTTTGAAGT | 0.661 ± 0.012 | 0.529 ± 0.056
TTTTTTCATGCTGCTCATCATTTTTTTTTTTTTTTGAAGG [GGAAG] | 0.607 ± 0.026 | 0.512 ± 0.025
TTTTTTCATGCTGCTCATGATTTTTTTTTTTTTTTGAAGC [CGAAG] | 0.547 ± 0.024 | 0.397 ± 0.027
TTTTTTCATGCTGCTCATGCTTTTTTTTTTTTTTTGAAGA [AGAAG] | 0.6356 ± 0.0052 | 0.582 ± 0.029
TTTTTTCATGCTGCTGAGCATTTTTTTTTTTTTTTGAACT [TCAAG] | 0.5 ± 0.016 | 0.36 ± 0.025
TTTTTTCATGCTGCTGATCATTTTTTTTTTTTTTTGAACG [GCAAG] | 0.541 ± 0.028 | 0.404 ± 0.023
TTTTTTCATGCTGCTGATGATTTTTTTTTTTTTTTGAACC [CCAAG] | 0.41 ± 0.033 | 0.288 ± 0.027
TTTTTTCATGCTGCTGATGCTTTTTTTTTTTTTTTGAACA [ACAAG] | 0.505 ± 0.013 | 0.394 ± 0.024
TTTTTTCATGCTGCTGCGCATTTTTTTTTTTTTTTGAAAT [TAAAG] | 0.574 ± 0.015 | 0.419 ± 0.025
TTTTTTCATGCTGCTGCTCATTTTTTTTTTTTTTTGAAAG | 0.574 ± 0.028 | 0.431 ± 0.056
TTTTTTCATGCTGCTGCTGATTTTTTTTTTTTTTTGAAAC [CAAAG] | 0.43 ± 0.023 | 0.333 ± 0.045
TTTTTTCATGCTGCTGCTGCTTTTTTTTTTTTTTTGAAAA [AAAAG] | 0.63 ± 0.012 | 0.491 ± 0.052
TTTTTTGAGCAGCAGCAGCATTTTTTTTTTTTTTTCTTTT | 0.494 ± 0.021 | 0.357 ± 0.035
TTTTTTGAGCAGCAGCATCATTTTTTTTTTTTTTTCTTTG [GTTTC] | 0.498 ± 0.024 | 0.343 ± 0.027
TTTTTTGAGCAGCAGCATGATTTTTTTTTTTTTTTCTTTC | 0.389 ± 0.014 | 0.297 ± 0.05
TTTTTTGAGCAGCAGCATGCTTTTTTTTTTTTTTTCTTTA [ATTTC] | 0.48 ± 0.016 | 0.4 ± 0.037
TTTTTTGAGCAGCATCAGCATTTTTTTTTTTTTTTCTTGT [TGTTC] | 0.604 ± 0.019 | 0.429 ± 0.024
TTTTTTGAGCAGCATCATCATTTTTTTTTTTTTTTCTTGG [GGTTC] | 0.631 ± 0.038 | 0.47 ± 0.05
TTTTTTGAGCAGCATCATGATTTTTTTTTTTTTTTCTTGC [CGTTC] | 0.481 ± 0.026 | 0.365 ± 0.022
